Read-outs that look alike come from different tables or passages of the source.

Take PDHA1: K83R: where the note is “other: succinylation at K83”, the degradation_or_half_life entry is “no change”, the enzymatic_activity entry is “decreases” and the other result is reported as “increases”.
For the substance PDHA1: K83R S293A (compared with K83R), the enzymatic_activity entry (phosphorylation at S293) is “increases”.

Source of the values: article PMC11968997.
